In US12227579B2, “Bispecific antibody targeting IL-1R1 and NLPR3” (University of Ulster, priority 2018, dated 2025):

B1: InflaMab: 210 kDa bispecific mouse antibody against IL-1R1 and NLRP3; light chain SEQ ID NO: 57, heavy chain SEQ ID NO: 59 (antibody)
heavy: MGWTLVFLFLLSVTAGVHSQIQLVQSGPELRKPGETVRISCKASGYPFTTAGLQWVQKMSGKGLKWIGWMNTQSEVPKYAEEFKGRIAFSLETAASTAYLQINNLKTEDTATYFCAKSVYFNWRYFDVWGAGTTVTVSSAKTTAPSVYPLAPVCGDTTGSSVTLGCLVKGYFPEPVTLTWNSGSLSSGVHTFPAVLQSDLYTLSSSVTVTSSTWPSQSITCNVAHPASSTKVDKKIEPRGPTIKPCPPCKCPAPNLLGGPSVFIFPPKIKDVLMISLSPIVTCVVVDVSEDDPDVQISWFVNNVEVHTAQTQTHREDYNSTLRVVSALPIQHQDWMSGKEFKCKVNNKDLPAPIERTISKPKGSVRAPQVYVLPPPEEEMTKKQVTLTCMVTDFMPEDIYVEWTNNGKTELNYKNTEPVLDSDGSYFMYSKLRVEKKNWVERNSYSCSVVHEGLHNHHTTKSFSRTPGKGSAGGSGGDSEVQLVESGGGLVKPGGSLKLSCAASGFTFSDYYMYWVRQTPEKRLEWVATISDGGTYTYYPDSVKGRFTISRDNAKNNLYLQMNSLKSEDTAMYYCARGWVSTMVKLLSSFPYWGQGTLVTVSAGGGGSGGGGSGGGGSQAVVTQESALTTSPGETVTLTCRSSTGAVTTSNYANWVQEKPDHLFTGLIGGTNNRAPGVPARFSGSLIGDKAALTITGAQTEDEAIYFCALWYSNYWVFGGGTKLTVLGQPK
light: MVSSAQFLGLLLLCFQGTRCDIVMTQSPATLSVTPGDRVSLSCRASQSISDYLSWYQQRSHESPRLIIKYASQSISGIPSRFSGSGSGSDFTLSINSVEPEDVGVYYCQHGHSFPLTFGSGTKLELKRADAAPTVSIFPPSSEQLTSGGASVVCFLNNFYPKDINVKWKIDGSERQNGVLNSWTDQDSKDSTYSMSSTLTLTKDEYERHNSYTCEATHKTSTSPIVKSFNRNEC
B2: F226 7A7-1E1-2D5: anti-NLRP3 monoclonal antibody from hybridoma clone, sequenced and used in the bispecific (antibody, V domains shown)
VH: EVQLVESGGGLVKPGGSLKLSCAASGFTFSDYYMYWVRQTPEKRLEWVATISDGGTYTYYPDSVKGRFTISRDNAKNNLYLQMNSLKSEDTAMYYCARGWVSTMVKLLSSFPYWGQGTLVTVSAAKTTPPSVYPLA
VL: QAVVTQESALTTSPGETVTLTCRSSTGAVTTSNYANWVQEKPDHLFTGLIGGTNNRAPGVPARFSGSLIGDKAALTITGAQTEDEAIYFCALWYSNYWVFGGGTKLTVLGQPKSSPSVTLFPPSTEKLSL

Experiments:
[1] = test system: THP1 cells; test: IL-1β release from LPS/ATP-stimulated differentiated THP1 cells (ELISA); type: cell-based; details: PMA-differentiated THP1, LPS 1 μg/ml 3 h, Ab 0.0025-2.5 ng/ml (FIG. 33a) or 1 nM (FIG. 33b) 30 min, ATP 5 mM 1 h; supernatant ELISA
Method: THP1 cells, for FIGS. 33a and b, were cultured in 96-well plates at 100,000 cells/200 μl complete media. PMA (100 μg/ml for 72 hours) was used to differentiate THP-1 cells into macrophages. Following 24 hours of rest, differentiated THP1 cells were stimulated with LPS (1 μg/ml) for 3 hours, treated with MCC950 (1 μM) or the IL-1R1/NLRP3 Ab in a dose dependent fashion from 0.0025 ng/ml to 2.5 ng/ml for FIG. 33a or with IL-1R1/NLRP3 Ab (1 nM) for FIG. 33b or with IgG control antibody for 30 minutes, followed by ATP (5 mM) for 1 hour. IL-1 release was measured in the supernatant by ELISA.

[2] = test system: microbead-induced mouse model of glaucoma; test: Microbead-induced mouse model of glaucoma; type: in vivo
Method: In the current study, WT C57BL/6J mice are receiving a single intravitreal injection of Inflamab (final vitreous concentration of 2.5, 25, or 250 ng/ml) on Day 0, immediately preceding the injection of microbeads and mice receiving saline only (no beads) are serving as a non-glaucoma control. RGC function is currently being measured by pERG using a fully integrated ERG system for rodents (Celeris). Changes in pERG amplitude is being measured in mice that received microbeads only and compared to mice that received microbeads plus Inflamab (final vitreous concentration of 2.5, 25, and 250 ng/ml) or saline only (no beads) [FIG. 42]. […] Visual acuity using an optomotor reflex-based spatial frequency threshold test, as well as RGC and axon quantification, is performed to further corroborate the neuroprotective effect of Inflamab and including additional control groups (microbead-injected mice treated with the appropriate IgG control antibody).
RGC analysis in WT mice treated with the NLRP3 inhibitor MCC950—see FIG. 41. […]
RGC function in WT mice treated with the NLRP3 inhibitor InflaMab—see FIG. 42. […] RGC function was measured by pERG using a fully integrated ERG system for rodents (Celeris) and changes in pERG amplitude was measured in mice that received microbeads only and compared to mice that received microbeads plus Inflamab (2.5, 25, and 250 ng/ml) or saline only (no beads). […]

[3] = test system: THP1 cells; test: Internalization of pHrodo red labelled bi-specific Ab in THP1 cells; type: cell-based; details: pHrodo red labelled Ab 1 ug/ml 30 min, LPS then ATP; confocal image
Method: (§1) Internalization of Inflamab—see FIG. 35. THP1 cells, for FIG. 35, were cultured in 96-well plates at 100,000 cells/200 ul complete media. Differentiation of THP1 cells was induced by PMA (100 ug/ml for 72 hours). Following 24 hours of rest, differentiated THP1 cells were stimulated with LPS (1 ug/ml) for 3 hours, treated with a pHrodo red labelled IL-1 r/NLRP3 Ab (1 ug/ml) for 30 minutes, followed by ATP (5 mM) for 1 hour. The internalization of the Ab was tracked using a pHrodo red labelled bi-specific Ab that only fluoresces when internalized.

[4] = test system: THP1 cells; test: Caspase-1 activation in THP1 cells (FAM-FLICA staining, confocal); type: cell-based
Method: THP1 cells, for FIG. 34, were cultured in 96-well plates at 100,000 cells/200 ul complete media. PMA ([…] for 72 hours) was used to differentiated THP-1 cells into macrophages. Following 24 hours of rest, differentiated THP1 cells were stimulated with LPS (1 ug/ml) for 3 hours, treated with the IL-1R1/NLRP3 Ab (1 ug/ml) for 30 minutes, followed by ATP (5 mM) for 1 hour. Caspase-1 activation was assessed by staining cells with a non-cytotoxic Fluorescent Labelled Inhibitor of Caspase-1 (FAM-FLICA) and DAPI (nuclear stain). Cells were treated with LPS alone (negative control), LPS+ATP (positive control), mouse IgG2a (1 ug/ml, Ab control), or IL-1 r/NLRP3 bi-specific Ab (1 ug/ml, experimental). Representative confocal images are shown for each group. Green=active caspae-1 and blue=Dapi/nuclear stain.
as §1

[5] = biological target: NLRP3 inflammasome (Homo sapiens, UniProt Q96P20); test: NLRP3 assembly in vitro assay; details: among hybridoma clones
Sequence of NLRP3 inflammasome (Q96P20 whole entry): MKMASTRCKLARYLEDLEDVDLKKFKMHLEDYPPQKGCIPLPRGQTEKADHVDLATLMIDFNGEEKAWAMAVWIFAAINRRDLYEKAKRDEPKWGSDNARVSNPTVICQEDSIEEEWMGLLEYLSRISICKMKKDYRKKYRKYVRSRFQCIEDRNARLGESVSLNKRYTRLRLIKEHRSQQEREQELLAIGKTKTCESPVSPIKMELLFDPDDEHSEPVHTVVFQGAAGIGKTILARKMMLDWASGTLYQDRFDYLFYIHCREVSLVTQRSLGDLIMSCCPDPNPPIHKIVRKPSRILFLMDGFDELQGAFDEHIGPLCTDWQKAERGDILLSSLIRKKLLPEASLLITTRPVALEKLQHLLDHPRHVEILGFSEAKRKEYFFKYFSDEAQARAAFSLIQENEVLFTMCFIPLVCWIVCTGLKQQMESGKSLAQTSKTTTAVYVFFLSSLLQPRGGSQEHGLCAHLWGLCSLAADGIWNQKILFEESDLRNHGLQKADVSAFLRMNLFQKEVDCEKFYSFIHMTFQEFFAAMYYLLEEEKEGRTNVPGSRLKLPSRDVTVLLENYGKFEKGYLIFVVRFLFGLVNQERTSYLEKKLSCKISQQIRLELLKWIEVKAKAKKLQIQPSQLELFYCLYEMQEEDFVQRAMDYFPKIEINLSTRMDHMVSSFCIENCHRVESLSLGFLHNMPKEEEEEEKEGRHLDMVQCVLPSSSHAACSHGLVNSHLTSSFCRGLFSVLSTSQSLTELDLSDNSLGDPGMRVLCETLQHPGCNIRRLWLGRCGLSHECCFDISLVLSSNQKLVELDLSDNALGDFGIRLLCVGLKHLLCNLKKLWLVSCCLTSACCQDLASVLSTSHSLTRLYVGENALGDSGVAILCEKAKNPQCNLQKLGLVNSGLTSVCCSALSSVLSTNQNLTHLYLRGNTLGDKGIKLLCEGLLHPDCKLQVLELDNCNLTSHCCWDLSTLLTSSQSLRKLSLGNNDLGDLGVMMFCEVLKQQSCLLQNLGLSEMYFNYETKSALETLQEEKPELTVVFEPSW

Molecule	IL-1β release [1]	death of RGCs ([2]; InflaMab, FIG. 42 title)	RGC function (pERG amplitude) ([2]; single intravitreal injection Day 0, final vitreous concentration 250 ng/ml, compared to microbeads only or Inflamab at 2.5 or 25 ng/ml, preliminary)	internalization of the Ab [3]	caspase-1 activation ([4]; differentiated THP1, LPS 1 ug/ml 3 h, Ab 1 ug/ml 30 min, ATP 5 mM 1 h, FAM-FLICA)	caspase-1 activation in THP1 cells that have internalized the Ab ([4]; pHrodo red labelled Ab 1 ug/ml, compared to THP1 cells that did not internalize the Ab)	preventing NLRP3 assembly [5]
B1	prevents IL-1β release	prevents death of RGCs	recovery of RGC function	internalization	prevents caspase-1 activation	significant reduction of caspase-1 activation	–
B2	–	–	–	–	–	–	most active
